This is an account of results in patent US20100280227A1 (Genentech, published 2010).

“And” between values parts separate entries of the source, which are not always exact repeats. Identical values can stand only once.

Experiment [1] has as its target T1, human BR3 expressed on cells (human, UniProt Q96RJ3 1-184).
T1 construct: whole, on cells; also called BR3 on BJAB cells; cell surface BR3
Kind of experiment: BJAB cell competitive binding assay against biotin-BAFF.
Experimental: BJAB cells, a human Burkitt lymphoma cell line, were cultured in RPMI media supplemented with 10% FBS, penicillin (100 U/ml, Gibco-Invitrogen, Carlsbad, Calif.), streptomycin (100 μg/ml, Gibco), and L-glutamine (10 mM). […] For binding assays, cells were washed with cold assay buffer (phosphate buffered saline (PBS), pH 7.4) containing 1% fetal bovine serum (FBS)). […] The plates containing the cells were centrifuged at 1200 rpm for 5 min at 4° C., and the supernatant was carefully aspirated away from the cell pellets. […] For these experiments, full length antibodies (IgG) were used.
(§1) The diluted samples were added to the pelleted BJAB cells in 96 well plates as described above. After 45 min incubation on ice, the cells were washed twice with 200 μl cold assay buffer, and streptavidin-HRP (AMDEX, Amersham Biosciences, Piscataway, N.J.) diluted 1/5,000 in assay buffer was added (100 μl/well). The plates were incubated for a final 45 min on ice. After washing twice with cold assay buffer, color was developed using TMB, the reaction was stopped with H₃PO₄, and the plates were read as described above.

The target in experiment [2] is T2, variant human BR3-Fc fusion.
T2 construct: produced in CHO cells; also called vBR3-Fc; vhBR3-Fc
Kind of experiment: competition ELISA on vhBR3-Fc against biotinylated 11G9. (ELISA stands for enzyme-linked immunosorbent assay.)

The target of experiment [3] is T1, human BR3 expressed on cells. The experiment in a line: BJAB cells, competition with biotin-BAFF.
Experimental: as §1
In experiment [4] the target is T3, human BR3 displayed on phage, T40 alanine-scan mutant (human, UniProt Q96RJ3 1-61, limits assumed).
T3 construct: One position of the shotgun alanine scan of BR3 on phage
Kind of experiment: shotgun alanine scan of phage-displayed BR3; F against wild type.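 Further: Phage-displayed BR3 shotgun alanine libraries, two selection rounds for anti-BR3 antibody binding, normalized to a display selection, F above 1 marks a harmful substitution, below 1 a beneficial one.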
Text: (§2) At the sites of mutation, wild-type codons were replaced with the corresponding shotgun alanine codon (Weiss, supra). […] Library 1 encoded shotgun codons at positions 17, 18, 20-23, 25, 27, 28, 30, and 33, while library 2 encoded shotgun codons at positions 26, 29, 31, 34, and 36-42. Each library contained 2×10⁹ members, allowing for complete representation of the theoretical diversity (>10⁴-fold excess).
(§3) The display selection was included in order to normalize the anti-BR3 antibody-binding selection for expression differences between library members. Phage eluted from each target were propagated in E. coli XL 1-blue; amplified phage were used for selection against the same target as in the previous round. After two rounds of selection, 48 individual clones from each library and selection were grown in a 96-well format in 400 L of 2YT medium supplemented with carbenicillin and KO7 helper phage.
(§4) F-values were calculated as previously described (Weiss, supra; Gordon, supra). […] Deleterious mutations have ratios >1, while advantageous mutations have ratios <1; boldface indicates a >10-fold effect.

Experiment [5] addresses T4, human BR3 displayed on phage, R42 alanine-scan mutant (human, UniProt Q96RJ3 1-61, limits assumed).
T4 construct: One position of the shotgun alanine scan of BR3 on phage
The experiment is described as above.
Text: as §2, §3, §4

Experiment [6] deals with T5, human BR3 displayed on phage, T17 alanine-scan mutant (human, UniProt Q96RJ3 1-61, limits assumed).
T5 construct: One position of the shotgun alanine scan of BR3 on phage; the F value gives the effect of this change against wild type; See m1 for the parent
The description is as above.
Text: as §2, §3, §4

Experiment [7] has as its target T6, human BR3 displayed on phage, F25 alanine-scan mutant (human, UniProt Q96RJ3 1-61, limits assumed).
T6 construct: One position of the shotgun alanine scan of BR3 on phage
The description is as above.
Text: as §2, §3, §4

Experiment [8] has as its target T7, human BR3 displayed on phage, P41 alanine-scan mutant (human, UniProt Q96RJ3 1-61, limits assumed).
T7 construct: One position of the shotgun alanine scan of BR3 on phage
Described as above.
Text: as §2, §3, §4

Experiment [9] deals with T8, human BR3 displayed on phage, V33 alanine-scan mutant (human, UniProt Q96RJ3 1-61, limits assumed).
T8 construct: One position of the shotgun alanine scan of BR3 on phage
The description is as above.
Text: as §2, §3, §4

Experiment [10] deals with T9, human BR3 displayed on phage, H31 alanine-scan mutant (human, UniProt Q96RJ3 1-61, limits assumed).
T9 construct: One position of the shotgun alanine scan of BR3 on phage
The experiment is described as above.
Text: as §2, §3, §4

For experiment [11], the target named is T10, human BR3 displayed on phage, D26 alanine-scan mutant (human, UniProt Q96RJ3 1-61, limits assumed).
T10 construct: One position of the shotgun alanine scan of BR3 on phage
The experiment is described as above.
Text: as §2, §3, §4

Experiment [12] addresses T11, human BR3 displayed on phage, G36 alanine-scan mutant (human, UniProt Q96RJ3 1-61, limits assumed).
T11 construct: One position of the shotgun alanine scan of BR3 on phage
The experiment is described as above.
Text: as §2, §3, §4

Experiment [13] addresses T12, human BR3 displayed on phage, L37 alanine-scan mutant (human, UniProt Q96RJ3 1-61, limits assumed).
T12 construct: One position of the shotgun alanine scan of BR3 on phage
The experiment is described as above.
Text: as §2, §3, §4

Experiment [14] concerns the target T13, human BR3 displayed on phage, E23 alanine-scan mutant (human, UniProt Q96RJ3 1-61, limits assumed).
T13 construct: One position of the shotgun alanine scan of BR3 on phage
The experiment is described as above.
Text: as §2, §3, §4

The target in experiment [15] is T14, human BR3 displayed on phage, P21 alanine-scan mutant (human, UniProt Q96RJ3 1-61, limits assumed).
T14 construct: One position of the shotgun alanine scan of BR3 on phage
Described as above.
Text: as §2, §3, §4

Experiment [16] deals with T15, human BR3 displayed on phage, L38 alanine-scan mutant (human, UniProt Q96RJ3 1-61, limits assumed).
T15 construct: One position of the shotgun alanine scan of BR3 on phage
Described as above.
Text: as §2, §3, §4

Experiment [17] deals with T16, human BR3 displayed on phage, L28 alanine-scan mutant (human, UniProt Q96RJ3 1-61, limits assumed).
T16 construct: One position of the shotgun alanine scan of BR3 on phage
The experiment is described as above.
Text: as §2, §3, §4

Experiment [18] deals with T17, human BR3 displayed on phage, L27 alanine-scan mutant (human, UniProt Q96RJ3 1-61, limits assumed).
T17 construct: One position of the shotgun alanine scan of BR3 on phage
The description is as above.
Text: as §2, §3, §4

Experiment [19] concerns the target T18, human BR3 displayed on phage, V20 alanine-scan mutant (human, UniProt Q96RJ3 1-61, limits assumed).
T18 construct: One position of the shotgun alanine scan of BR3 on phage
The description is as above.
Text: as §2, §3, §4

Experiment [20] has as its target human BR3 displayed on phage, mutated at A34 in the alanine scan (human, UniProt Q96RJ3 1-61, limits assumed). The experiment is described as above.
Text: as §2, §3, §4
Experiment [21] has as its target T19, human BR3 displayed on phage, R30 alanine-scan mutant (human, UniProt Q96RJ3 1-61, limits assumed).
T19 construct: One position of the shotgun alanine scan of BR3 on phage
The description is as above.
Text: as §2, §3, §4

The target in experiment [22] is T20, human BR3 displayed on phage, V29 alanine-scan mutant (human, UniProt Q96RJ3 1-61, limits assumed).
T20 construct: One position of the shotgun alanine scan of BR3 on phage
Described as above.
Text: as §2, §3, §4

The target of experiment [23] is T21, human BR3 displayed on phage, P18 alanine-scan mutant (human, UniProt Q96RJ3 1-61, limits assumed).
T21 construct: One position of the shotgun alanine scan of BR3 on phage
Described as above.
Text: as §2, §3, §4

The target in experiment [24] is T22, human BR3 displayed on phage, R39 alanine-scan mutant (human, UniProt Q96RJ3 1-61, limits assumed).
T22 construct: One position of the shotgun alanine scan of BR3 on phage
The experiment is described as above.
Text: as §2, §3, §4

Experiment [25] addresses T1, human BR3 expressed on cells. The experiment in a line: BJAB cell direct binding assay, anti-mouse IgG Fc-HRP.
Experimental: For binding assays, cells were washed with cold assay buffer (phosphate buffered saline (PBS), pH 7.4) containing 1% fetal bovine serum (FBS)). […] The plates containing the cells were centrifuged at 1200 rpm for 5 min at 4° C., and the supernatant was carefully aspirated away from the cell pellets. […] For these experiments, full length antibodies (IgG) were used.
(§5) Direct and competitive binding assays were performed as follows. For the direct binding assay, IgG antibody samples were serially diluted in cold assay buffer to concentrations ranging between 300-0.02 nM. Samples (100 μl) were added to the pelleted cells, and the plates were incubated for 45 min on ice. An additional 100 μl assay buffer was then added to each well, and the plates were centrifuged at 1200 rpm for 5 min at 4° C. After carefully aspirating the supernatant, the cells were washed two additional times with 200 μl assay buffer. An anti-mouse IgG Fc-HRP or goat anti-human IgG Fc-HRP, as appropriate, was diluted 1/10,000 in cold assay buffer was added (100 μl/well, Jackson ImmunoResearch, West Grove, Pa.), and the plates were incubated on ice for 45 min. Following two washes with 200 μl cold assay buffer, tetramethyl benzidine (TMB, Kirkegaard & Perry Laboratories, Gaithersburg, Md.) was added, and color was allowed to develop for 10 min. One hundred microliters 1 M H₃PO₄ was added to stop the reaction. The plates were then read on a microplate reader at 450 nm with a 620 nm reference. In the direct binding assay, the indicated concentrations of mAbs were added to BJAB cells and bound mAb was detected.
Experiment [26] shares this target. The experiment in a line: BJAB cells, direct binding.
Experimental: as §5
The target of experiment [27] is T23, human BAFF (residues 82-285) (human, UniProt Q9Y275 82-285).
T23 construct: range 82-285; also called biotin-BAFF; biotinylated BAFF
Kind of experiment: BJAB cell competitive binding assay: soluble BR3-Fc keeps biotin-BAFF from BR3 on the cells.

The target of experiment [28] is T2, variant human BR3-Fc fusion. Kind of experiment: SPR, vBR3-Fc on chip.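 Further: Anti-BR3 antibodies passed over chip-bound BR3-Fc in PBS with 0.05% polysorbate 20, on and off rates fitted together globally to a 1:1 binding model.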 Background: SPR reads the build-up and loss of mass on a sensor chip optically.
For experiment [29] the target is unchanged. Kind of experiment: competition ELISA on vhBR3-Fc against biotinylated 9.1.
In experiment [30] the target is T24, human BR3 extracellular domain (human, UniProt Q96RJ3 1-61).
T24 construct: biotinylated where used as tracer; also called hBR3-ECD; BR3-ECD
The experiment in a line: SPR, BR3 ECD on chip.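 Further: Anti-BR3 antibodies passed over the chip at high flow in PBS with 0.05% polysorbate 20, on and off rates fitted together globally to a 1:1 binding model.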
Experimental: After coupling, unoccupied sites on the chip were blocked by injecting 20 μl of 1M ethanolamine, pH 8.5. The running buffer was PBS containing 0.05% polysorbate 20. […] The binding surface was regenerated by injecting 20-30 μl of 10 mM glycine.HCl (pH 1.5). […] Data were analyzed using a 1:1 binding model using global fitting. The association and dissociation rate constants were fitted simultaneously (BIAevaluation software).
A high flow rate was used in order to minimize mass transport effects.

The target of experiment [31] is T24, human BR3 extracellular domain. Kind of experiment: SPR, IgG on chip, BR3 ECD in solution.
Experiment [32] concerns the target human BR3 displayed on phage, mutated at A22 in the alanine scan (human, UniProt Q96RJ3 1-61, limits assumed). The experiment in a line: shotgun alanine scan of phage-displayed BR3; F against wild type.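 Further: Phage-displayed BR3 shotgun alanine libraries, two selection rounds for anti-BR3 antibody binding, normalized to a display selection, F above 1 marks a harmful substitution, below 1 a beneficial one.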
Text: as §2, §3, §4
Experiment [33] deals with T2, variant human BR3-Fc fusion. Kind of experiment: competition ELISA on vhBR3-Fc against biotinylated 2.1.

T23 sequence (Q9Y275 82-285 limits assumed): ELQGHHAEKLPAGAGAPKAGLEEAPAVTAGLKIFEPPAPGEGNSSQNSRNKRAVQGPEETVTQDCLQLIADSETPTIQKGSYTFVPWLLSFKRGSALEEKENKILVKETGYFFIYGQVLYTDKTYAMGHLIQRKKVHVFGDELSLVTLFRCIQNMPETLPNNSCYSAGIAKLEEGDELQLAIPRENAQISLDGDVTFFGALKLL

B1: murine monoclonal antibody 11G9 (antibody, V domains shown)
VH: DVQLQESGPSLVKPSQTLSLTCSVTGDSITSGYWNWIRKFPGNKLEYMGYISYSGSTYYNPSLKSRISITRDTSKNQFYLQLLSVTTEDTATYYCAGLDGLYWYFDVWGAGTLVTVSS
VL: DIVMTQTPLSLPVSLGDQASISCRSSQSLVHSNGNTYLHWYLQKPGQSPKLLIYKVSNRFSGVPDRFSGSGSGTDFTLKISRVEAEDLGVYFCSQSTHVPPFTFGSGT
notes: mouse hybridoma IgG; also called mu11G9
Regarding B1, the IC50 was found to be 0.29 nM in [1] and 0.38 nM in [3]. Besides, the “IC50 (read off the curve)” value in experiment [2] is ~0.2 µg/mL. The F value in [4] turned out to be 0.5; in experiment [5], 0.9; in experiment [6] it was 0.5; in experiment [7] it was 38; in experiment [8], 1.7; in [9], 24. For the same molecule, the F value in experiment [10] was 2.8; in experiment [11] it was 8.5; in experiment [12] it was 1.8; in experiment [13], 0.7; in experiment [14], 6.9; in experiment [15] it was 40. Moreover, the F value in experiment [16] came out at 0.9; in experiment [17], 0.4; in experiment [18], 1.1; in [19], 1.1; in experiment [20], 32; in [21], 1.7. For the same molecule, the results for the F value in experiment [22], in experiment [23] and in [24] were 1, 0.5 and 3.1, respectively. Also, the EC50 in experiment [25] is 0.17 nM; in experiment [26], 0.19 nM.

B2: mouse BR3-Fc (Fc fusion)
chain: STGARRLRVRSQRSRDSSVPTQCNQTECFDPLVRNCVSCELFHTPDTGHTSSLEPGTALQPQEGQVTGDKKIVPRDCGCKPCICTVPEVSSVFIFPPKPKDVLTITLTPKVTCVVVDISKDDPEVQFSWFVDDVEVHTAQTQPREEQFNSTFRSVSELPIMHQDWLNGKEFKCRVNSAAFPAPIEKTISKTKGRPKAPQVYTIPPPKEQMAKDKVSLTCMITDFFPEDITVEWQWNGQPAENYKNTQPIMNTNGSYFVYSKLNVQKSNWEAGNTFTCSVLHEGLHNHHTEKSLSHSPGK
notes: (BR3 ECD fused to a murine Fc); also called mBR3-Fc; murine BR3-Fc
In experiment [27], B2 displayed an IC50 of 12.7 nM. Also, in [25], the binding result was “no binding (tested: about 35 ng/ml as the axis is labelled)”.

B3: murine monoclonal antibody 9.1 (antibody, V domains shown)
VH: EVKLVESGGGLVQPGGSLRLSCAISGFTVTAYYMSWVRQPPGKALEWLGFIRDKANGYTTEYNPSVKGRFTISRDNSQSIFYLQMNTLRAEDSATYYCAQVRRALDYWGQGTTVTVSA
VL: DIVMSQSPSSLAVSVGEKVTMSCKSSQSLLYSSNQNNYLAWYQQKPGQSPKLLIYWASTRESGVPDRFTGSGSGTDFTLTISSVKAEDLAVYYCQQYYTYPYTFGGGT
notes: mouse hybridoma IgG; also called 9.1 IgG; mu9.1
Regarding B3, the IC50 stood at 0.86 nM in [1] and 1.3 nM in [3]. Further, the Kd in experiment [28] was found to be 0.61 nM. Further, the figures for the “IC50 (read off the curve)” value in experiment [2] and in experiment [29] were ~0.1 µg/mL and ~0.6 µg/mL, respectively. Further, the EC50 is 0.46 nM in experiment [25] and 0.54 nM in experiment [26].

B4: murine monoclonal antibody 2.1 (antibody, V domains shown)
VH: EVQLQESGPSLVKPSQTLSLTCSVTGDSITRGYWNWIRKFPGNKLEFMGYINYSGTTYYNPSLKSRISITRDTSKNQYYLQLNSVTTEDTATYYCATPHTYGAMDYWGQGTTLTVSA
VL: DIVLTQSPVSLAVSLGQRATISCRASESVDDYGISFMHWYQQKPGQPPKLLIYRASDLESGIPARFSGSGSGTDFTLTINPVETDDVAIYYCQQTSKDPWTFGGGT
notes: mouse hybridoma IgG; also called 2.1 IgG; mu2.1
On to B4, for which the Kd in experiment [30] was 0.05 nM; in experiment [31] it was 0.15 nM; in experiment [28] it was 0.08 nM and 0.07 nM. In addition, the off-rate constant (koff) is 5.2e-05 s⁻¹ in [30]; 1.7e-05 s⁻¹ in experiment [31]; 3.4e-05 s⁻¹ and 3.3e-05 s⁻¹ in [28]. Moreover, the on-rate (kon) was 960000 M⁻¹ s⁻¹ in [30]; 110000 M⁻¹ s⁻¹ in experiment [31]; 440000 M⁻¹ s⁻¹ and 470000 M⁻¹ s⁻¹ in [28]. The “IC50 (read off the curve)” value in [2] was ~0.1 µg/mL; in experiment [33] it was ~0.6 µg/mL. For the same molecule, in [3], the IC50 turned out to be 0.25 nM. Also, the F value in experiment [4] was 0.2; in experiment [5], 1.8; in experiment [6], 0.6; in experiment [7], 49; in experiment [8] it was 0.7; in [10], 0.6. Moreover, the F value in experiment [11] came out at 6.1; in experiment [13], 0.1; in experiment [14] it was 9.6; in experiment [15] it was 1.9; in [16], 0.9; in experiment [17], 0.1. In addition, the F value in experiment [18] turned out to be 0.8; in experiment [19] it was 3; in experiment [32], 3.2; in experiment [20] it was 62; in experiment [21], 10; in experiment [22] it was 0.5. For the same molecule, the F value in experiment [23] and in experiment [24] was 0.5 each time. In [26], this molecule had an EC50 of 0.16 nM.

The term IC50 denotes the concentration that inhibits the measured activity by half. The low end stands for higher potency, the high end for lower potency. What is called EC50 is the concentration at which the effect is half-maximal. In general, Kd refers to a measure of binding affinity in units of concentration. The koff is a measure of how fast the partners let go of each other. A word on the kon: it is a measure of how fast the partners come together. A higher kon goes with faster complex formation.
